In IntAct's records for PubMed 21821029:

Target: aurka_human AURKA (UniProt O14965)
Sequence (O14965 whole entry): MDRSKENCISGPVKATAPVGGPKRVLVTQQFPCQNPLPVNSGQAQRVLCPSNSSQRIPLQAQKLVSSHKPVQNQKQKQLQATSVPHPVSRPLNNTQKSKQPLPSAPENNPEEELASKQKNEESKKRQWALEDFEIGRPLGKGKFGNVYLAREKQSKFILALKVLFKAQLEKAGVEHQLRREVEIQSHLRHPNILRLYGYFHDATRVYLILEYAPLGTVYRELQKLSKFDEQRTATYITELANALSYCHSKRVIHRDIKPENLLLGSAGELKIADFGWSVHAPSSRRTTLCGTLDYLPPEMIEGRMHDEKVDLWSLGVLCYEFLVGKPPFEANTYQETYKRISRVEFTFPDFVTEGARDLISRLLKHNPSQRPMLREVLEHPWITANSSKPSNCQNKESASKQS

Heterogeneous nuclear ribonucleoprotein K (Homo sapiens), P61978-2 S379A
effect of a mutation on the interaction: disrupting interaction
